Source: publication PMC11021511 (Nature Communications, 2024)

Columns and labels:
Test in all cases: affinity purification with mass spectrometry; ESK1 antibody cross-linked to Protein A/G beads as bait; lysate of primary human liver tissue (0.5% IGEPAL 630, 50 mM Tris pH 8.0, 150 mM NaCl), at least 5 h at 4 °C; washes with 150 mM NaCl, 450 mM NaCl and no salt; peptides eluted with 10% acetic acid, 5 kDa filter, LC-MS2; enrichment against the MAGE-A4 antibody as control; triplicates
Conditions in all cases: one partner purified
[1] = biological target: T1, HLA-A*02:01 in complex with peptide ALDOA_(216-224) (…) (Homo sapiens, HLA-A*02:01)
T1 construct: HLA class I heavy chain, allele HLA-A*02:01, human; beta-2-microglobulin, human; The presenting allele is assigned by NetMHCpan 4.1 prediction (rank <= 2); source: peptide pulsed on T2 cells (JNFAT assay); copies: + +

[2] = biological target: T2, HLA-A*02:01 in complex with peptide SHC1_(469-477) (…) (Homo sapiens, HLA-A*02:01)
T2 construct: HLA class I heavy chain, allele HLA-A*02:01, human; beta-2-microglobulin, human; The presenting allele is assigned by NetMHCpan 4.1 prediction (rank <= 2); source: peptide pulsed on T2 cells (JNFAT assay); copies: + +

[3] = biological target: T3, HLA-A*02:01 in complex with peptide CRYL1_(130-138) (…) (Homo sapiens, HLA-A*02:01)
T3 construct: HLA class I heavy chain, allele HLA-A*02:01, human; beta-2-microglobulin, human; The presenting allele is assigned by NetMHCpan 4.1 prediction (rank <= 2); source: peptide pulsed on T2 cells (JNFAT assay); copies: + +

[4] = biological target: T4, HLA-A*02:01 in complex with peptide RL5_(117-125) (…) (Homo sapiens, HLA-A*02:01)
T4 construct: HLA class I heavy chain, allele HLA-A*02:01, human; beta-2-microglobulin, human; The presenting allele is assigned by NetMHCpan 4.1 prediction (rank <= 2); source: peptide pulsed on T2 cells (JNFAT assay); copies: + +

[5] = biological target: T5, HLA-A*02:01 in complex with peptide HNRNPA1_(15-23) (…) (Homo sapiens, HLA-A*02:01)
T5 construct: HLA class I heavy chain, allele HLA-A*02:01, human; beta-2-microglobulin, human; Heterogeneous nuclear ribonucleoprotein A1, human, residues 15-23; The presenting allele is assigned by NetMHCpan 4.1 prediction (rank <= 2; printed rank 1.625); source: peptide pulsed on T2 cells (JNFAT assay); copies: + +

[6] = biological target: T6, HLA-A*02:01 in complex with peptide ARHGEF26_(863-871) (…) (Homo sapiens, HLA-A*02:01)
T6 construct: HLA class I heavy chain, allele HLA-A*02:01, human; beta-2-microglobulin, human; The presenting allele is assigned by NetMHCpan 4.1 prediction (rank <= 2); source: peptide pulsed on T2 cells (JNFAT assay); copies: + +

[7] = biological target: T7, HLA-A*02:01 in complex with peptide CYP2C8_(59-67) (…) (Homo sapiens, HLA-A*02:01)
T7 construct: HLA class I heavy chain, allele HLA-A*02:01, human; beta-2-microglobulin, human; Cytochrome P450 2C8, human, residues 59-67; The presenting allele is assigned by NetMHCpan 4.1 prediction (rank <= 2); source: peptide pulsed on T2 cells (JNFAT assay); copies: + +

[8] = biological target: T8, HLA-A*02:01 in complex with peptide SF3B4_(78-86) (…) (Homo sapiens, HLA-A*02:01)
T8 construct: HLA class I heavy chain, allele HLA-A*02:01, human; beta-2-microglobulin, human; Splicing factor 3B subunit 4, human, residues 78-86; The presenting allele is assigned by NetMHCpan 4.1 prediction (rank <= 2); source: peptide pulsed on T2 cells (JNFAT assay); copies: + +

[9] = biological target: T9, HLA-A*02:01 in complex with peptide USP9Y_(1674-1682) (…) (Homo sapiens, HLA-A*02:01)
T9 construct: HLA class I heavy chain, allele HLA-A*02:01, human; beta-2-microglobulin, human; The presenting allele is assigned by NetMHCpan 4.1 prediction (rank <= 2); source: peptide pulsed on T2 cells (JNFAT assay); copies: + +

[10] = biological target: T10, HLA-A*02:01 in complex with peptide ILF2_(127-135) (…) (Homo sapiens, HLA-A*02:01)
T10 construct: HLA class I heavy chain, allele HLA-A*02:01, human; beta-2-microglobulin, human; The presenting allele is assigned by NetMHCpan 4.1 prediction (rank <= 2); source: peptide pulsed on T2 cells (JNFAT assay); copies: + +

[11] = biological target: T11, HLA-A*02:01 in complex with peptide MAF_(116-124) (…) (Homo sapiens, HLA-A*02:01)
T11 construct: HLA class I heavy chain, allele HLA-A*02:01, human; beta-2-microglobulin, human; The presenting allele is assigned by NetMHCpan 4.1 prediction (rank <= 2); source: peptide pulsed on T2 cells (JNFAT assay); copies: + +

[12] = biological target: T12, HLA-A*02:01 in complex with peptide MSMO1_(164-172) (…) (Homo sapiens, HLA-A*02:01)
T12 construct: HLA class I heavy chain, allele HLA-A*02:01, human; beta-2-microglobulin, human; The presenting allele is assigned by NetMHCpan 4.1 prediction (rank <= 2); source: peptide pulsed on T2 cells (JNFAT assay); copies: + +

[13] = biological target: T13, HLA-A*02:01 in complex with peptide PLG_(92-100) (…) (Homo sapiens, HLA-A*02:01)
T13 construct: HLA class I heavy chain, allele HLA-A*02:01, human; beta-2-microglobulin, human; Plasminogen, human, residues 92-100; The presenting allele is assigned by NetMHCpan 4.1 prediction (rank <= 2); source: peptide pulsed on T2 cells (JNFAT assay); copies: + +

[14] = biological target: T14, HLA-A*02:01 in complex with peptide SET_(150-158) (…) (Homo sapiens, HLA-A*02:01)
T14 construct: HLA class I heavy chain, allele HLA-A*02:01, human; beta-2-microglobulin, human; The presenting allele is assigned by NetMHCpan 4.1 prediction (rank <= 2); source: peptide pulsed on T2 cells (JNFAT assay); copies: + +

[15] = biological target: T15, HLA-A*02:01 in complex with peptide RBM4B_(59-67) (…) (Homo sapiens, HLA-A*02:01)
T15 construct: HLA class I heavy chain, allele HLA-A*02:01, human; beta-2-microglobulin, human; The presenting allele is assigned by NetMHCpan 4.1 prediction (rank <= 2); also called RMB4B_(59-67); source: peptide pulsed on T2 cells (JNFAT assay); copies: + +

Measured: binding result

B1: ESK1 antibody (antibody, V domains shown)
VH: QMQLVQSGAEVKEPGESLRISCKGSGYSFTNFWISWVRQMPGKGLEWMGRVDPGYSYSTYSPSFQGHVTISADKSTSTAYLQWNSLKASDTAMYYCARVQYSGYYDWFDPWGQGTLVTVSS
VL: not shown
notes: the constant region of the bait antibody is not described for ESK1
binds: all assays above
